According to PMC5389548:

Each binder was assayed against thrombin (human, UniProt P00734;P00734 328-363;364-622) (assay: microarray sandwich fluorescence).

Binder	Kd
GGTTGGTGTGGTTGG (structured_DNA) [TBA1 control]	93 ± 23 nM
GGTTGGTGTGGTTGG (structured_DNA, 2'F-ANA at T3, G8, T12; full pattern lost in text) [sequence 1]	28 ± 1.6 nM
GGTTGGTGTGGTTGG (structured_DNA, ten 2'F-ANA, positions lost in text) [sequence 10]	45 ± 14 nM
GGTTGGTGTGGTTGG (structured_DNA, ten 2'F-ANA, positions lost in text) [sequence 11]	53 ± 16 nM
GGTTGGTGTGGTTGG (structured_DNA, 2'F-araT, positions lost in text) [sequence 15]	85 ± 21 nM
GGTTGGTGTGGTTGG (structured_DNA, 2'F-araT, positions lost in text) [sequence 16]	117 ± 44 nM
GGTTGGTGTGGTTGG (structured_DNA, 2'F-ANA at T3, G8, T12; full pattern lost in text) [sequence 2]	28 ± 1.2 nM
GGTTGGTGTGGTTGG (structured_DNA, 2'F-ANA, positions lost in text) [sequence 3]	39 ± 10 nM
GGTTGGTGTGGTTGG (structured_DNA, 2'F-ANA, positions lost in text) [sequence 4]	41 ± 3.7 nM
GGTTGGTGTGGTTGG (structured_DNA, eight 2'F-ANA, positions lost in text) [sequence 6]	29 ± 2.7 nM
